Measurements from PMC4209802.
Read-outs that look alike come from different tables or passages of the source.

Key:
Experiment in all cases: FRET or BRET
P14 TCR vβ8 chain [1] = biological target: P14 TCR vβ8 chain
P14 TCR vβ8 chain [2] = biological target: P14 TCR vβ8 chain; remark: listed apart in the source
OT-I TCR vβ5 chain [3] = biological target: OT-I TCR vβ5 chain
OT-I TCR vβ5 chain [4] = biological target: OT-I TCR vβ5 chain; remark: listed apart in the source
P14 TCR vβ8 chain [5] = biological target: P14 TCR vβ8 chain; remark: listed apart in the source
OT-I TCR vβ5 chain [6] = biological target: OT-I TCR vβ5 chain; remark: listed apart in the source
P14 TCR vβ8 chain [7] = biological target: P14 TCR vβ8 chain; remark: listed apart in the source
P14 TCR vβ8 chain [8] = biological target: P14 TCR vβ8 chain; remark: listed apart in the source
OT-I TCR vβ5 chain [9] = biological target: OT-I TCR vβ5 chain; remark: listed apart in the source
P14 TCR vβ8 chain [10] = biological target: P14 TCR vβ8 chain; remark: listed apart in the source
P14 TCR vβ8 chain [11] = biological target: P14 TCR vβ8 chain; remark: listed apart in the source

Row | FRET efficiency (P14 TCR vβ8 chain [1]) | FRET efficiency (P14 TCR vβ8 chain [2]) | FRET efficiency (OT-I TCR vβ5 chain [3]) | FRET efficiency (OT-I TCR vβ5 chain [4]) | FRET efficiency (P14 TCR vβ8 chain [5]) | FRET efficiency (OT-I TCR vβ5 chain [6]) | FRET efficiency (P14 TCR vβ8 chain [7]) | FRET efficiency (P14 TCR vβ8 chain [8]) | FRET efficiency (OT-I TCR vβ5 chain [9]) | FRET efficiency (P14 TCR vβ8 chain [10]) | FRET efficiency (P14 TCR vβ8 chain [11]) | Substance
1 | 16% | 22.6% | 32.5% | 33.7% | 21% | 25% |  |  |  |  |  | OT-I TCR vα2 chain with N-terminal HA tag
2 | 10% | 23.3% | 12% |  | 19% | 12% | 27% | 26% | 28% | 27% | 35% | P14 TCR vα2 chain with two N-terminal myc tags
